{"source": "paper PMC12635110", "biological_target": "MCPH1-BRCT-eCR (tandem BRCT 2-3 of MCPH1) tandem BRCT domain (BRCT2-3)", "assay": "FRAP of eGFP in live cells", "details": "reference: DMSO, outside spontaneous damage foci; sites S139", "data": [{"substance": "H2AX (from UniProt P16104) ETO ~1 h, within a damage focus", "values": [{"measurement": "other: FRAP recovery half-life", "value": "same; reference 1.07 ± 0.76"}]}]}
